In general, EC50 refers to the midpoint of the concentration-response curve.

In the test the target is recombinant HA derived from A/California/07/2009 H1N1 (influenza A virus, UniProt P26140 18-529). Briefly: ELISA, rHA coated on plate. Background: In an ELISA, binding on a coated surface is turned into a signal by an enzyme label.

B1: FBD94 IgG (antibody, V domains shown)
VH: EVQLVESGGGLVQPGRSLRLSCAVSGFIFEDYAINWVRQAPGKGLEWVSIISWDSGRIGYADSVRGRFTISRDNAKNSSFLQMNSLRPEDTAVYYCVKDMLAYYYDGSGIRYNLYGMDVWGQGTTVTVSS
VL: EIVLTQSPATLSLSPGERATLSCRASRSITTFLAWYQQKPGQAPRLLIYDASNRATGVPARFSGSGSGTDFTLTINSLEPDDFAIYYCQQRDHWPPIFGQGTRLEIK
Consider B1, for which the binding result is “no binding”.

B2: FBC39 IgG (antibody, V domains shown)
VH: EVQLVVSGGGLVKPGGSLRLSCAASGLSFLNAWMSWVRQAPGKGLEWVGRIKSNTDGGTTDYAAPVKGRFSISRDDSKNMLFLHMSSLRTEDTAVYYCATDGPYSDDFRSGYAARYRYFGMDVWGQGTTVTVSS
VL: DIQMTQSPSSVSASVGDRVTITCRASQDISTWLAWYQQKPGKAPKLLIYAASSLQSGVPSRFSGSGSGTDFTLTISSLQPEDFATYFCQQANSFPPTFGQGTKLEIK
For B2, the binding result is on record as “no binding”.

B3: FY1/94 BiS2 100/44 (bispecific antibody)
light: DIQMTQSPSSLSASVGDRVTITCRTSQSLSSYLHWYQQKPGKAPKLLIYAASSLQSGVPSRFSGSGSGTDFTLTISSLQPEDFATYYCQQSRTFGQGTKVEIKRTVAAPSVFIFPPSDEQLKSGTASVVCLLNNFYPREAKVQWKVDNALQSGNSQESVTEQDSKDSTYSLSSTLTLSKADYEKHKVYACEVTHQGLSSPVTKSFNRGEC
heavy: not shown
Regarding B3, the concentration for a half-maximal effect (EC50) is 6.83 nM.

B4: FY1/39 BiS4 100/44 (bispecific antibody)
light: DIQMTQSPSSLSASVGDRVTITCRTSQSLSSYLHWYQQKPGKAPKLLIYAASSLQSGVPSRFSGSGSGTDFTLTISSLQPEDFATYYCQQSRTFGQGTKVEIKRTVAAPSVFIFPPSDEQLKSGTASVVCLLNNFYPREAKVQWKVDNALQSGNSQESVTEQDSKDSTYSLSSTLTLSKADYEKHKVYACEVTHQGLSSPVTKSFNRGEC
heavy: not shown
B4: the EC50 stood at 1.19 nM.

B5: FY1/39 BiS2 100/44 (bispecific antibody)
light: DIQMTQSPSSLSASVGDRVTITCRTSQSLSSYLHWYQQKPGKAPKLLIYAASSLQSGVPSRFSGSGSGTDFTLTISSLQPEDFATYYCQQSRTFGQGTKVEIKRTVAAPSVFIFPPSDEQLKSGTASVVCLLNNFYPREAKVQWKVDNALQSGNSQESVTEQDSKDSTYSLSSTLTLSKADYEKHKVYACEVTHQGLSSPVTKSFNRGEC
heavy: not shown
Consider B5, for which the EC50 was found to be 3.97 nM.

B6: FY1/94 BiS4 100/44 (bispecific antibody)
light: DIQMTQSPSSLSASVGDRVTITCRTSQSLSSYLHWYQQKPGKAPKLLIYAASSLQSGVPSRFSGSGSGTDFTLTISSLQPEDFATYYCQQSRTFGQGTKVEIKRTVAAPSVFIFPPSDEQLKSGTASVVCLLNNFYPREAKVQWKVDNALQSGNSQESVTEQDSKDSTYSLSSTLTLSKADYEKHKVYACEVTHQGLSSPVTKSFNRGEC
heavy: not shown
B6: the EC50 was determined as 1.53 nM.

B7: FY1/39 BiS3 100/44 (bispecific antibody)
light: DIQMTQSPSSLSASVGDRVTITCRTSQSLSSYLHWYQQKPGKAPKLLIYAASSLQSGVPSRFSGSGSGTDFTLTISSLQPEDFATYYCQQSRTFGQGTKVEIKRTVAAPSVFIFPPSDEQLKSGTASVVCLLNNFYPREAKVQWKVDNALQSGNSQESVTEQDSKDSTYSLSSTLTLSKADYEKHKVYACEVTHQGLSSPVTKSFNRGEC
heavy: not shown
In the case of B7, the EC50 was determined as 1.52 nM.

B8: GL20/39FTL BiS4 43/105 (bispecific antibody)
light: DIQMTQSPSSLSASVGDRVTITCRTSQSLSSYTHWYQQKPGKAPKLLIYAASSRGSGVPSRFSGSGSGTDFTLTISSLQPEDFATYYCQQSRTFGQGTKVEIKRTVAAPSVFIFPPSDEQLKSGTASVVCLLNNFYPREAKVQWKVDNALQSGNSQESVTEQDSKDSTYSLSSTLTLSKADYEKHKVYACEVTHQGLSSPVTKSFNRGEC
heavy: not shown
For B8, the EC50 turned out to be 0.86 nM.

B9: FY1/39 BiS4 43/105 (bispecific antibody)
light: DIQMTQSPSSLSASVGDRVTITCRTSQSLSSYLHWYQQKPGKAPKLLIYAASSLQSGVPSRFSGSGSGTDFTLTISSLQPEDFATYYCQQSRTFGQGTKVEIKRTVAAPSVFIFPPSDEQLKSGTASVVCLLNNFYPREAKVQWKVDNALQSGNSQESVTEQDSKDSTYSLSSTLTLSKADYEKHKVYACEVTHQGLSSPVTKSFNRGEC
heavy: not shown
Consider B9, for which the EC50 is 0.78 nM.

B10: GL20/39 BiS4 100/44 (bispecific antibody)
light: DIQMTQSPSSLSASVGDRVTITCRTSQSLSSYTHWYQQKPGKAPKLLIYAASSRGSGVPSRFSGSGSGTDFTLTISSLQPEDFATYYCQQSRTFGQGTKVEIKRTVAAPSVFIFPPSDEQLKSGTASVVCLLNNFYPREAKVQWKVDNALQSGNSQESVTEQDSKDSTYSLSSTLTLSKADYEKHKVYACEVTHQGLSSPVTKSFNRGEC
heavy: not shown
For B10, the EC50 stood at 0.95 nM.

B11: FY1 IgG (antibody, V domains shown)
VH: QVQLQESGPGLVKPSQTLSLTCAISGDSVSSNNAVWNWIRQSPSRGLEWLGRTYYRSKWYNDYAESVKSRITVNPDTSKNQFSLHLKSVTPEDTAVFYCVRSGHITVFGVNVDAFDMWGQGTMVTVSS
VL: DIQMTQSPSSLSASVGDRVTITCRTSQSLSSYLHWYQQKPGKAPKLLIYAASSLQSGVPSRFSGSGSGTDFTLTISSLQPEDFATYYCQQSRTFGQGTKVEIK
Turning to B11, the EC50 is 2.15 nM.

B12: GL20/39FTL BiS4 100/44 (bispecific antibody)
light: DIQMTQSPSSLSASVGDRVTITCRTSQSLSSYTHWYQQKPGKAPKLLIYAASSRGSGVPSRFSGSGSGTDFTLTISSLQPEDFATYYCQQSRTFGQGTKVEIK
heavy (part 1 of 2): QVQLQQSGPGLVKPSQTLSLTCAISGDSVSSYNAVWNWIRQSPSRGLEWLGRTYYRSGWYNDYAESVKSRITINPDTSKNQFSLQLNSVTPEDTAVYYCARSGHITVFGVNVDAFDMWGQGTMVTVSS
heavy (part 2 of 2): DIQMTQSPSSVSASVGDRVTITCRASQDISTWLAWYQQKPGKAPKLLIYAASSLQSGVPSRFSGSGSGTDFTLTISSLQPEDFATYYCQQANSFPPTFGCGTKLEIKGGGGSGGGGSGGGGSGGGGSEVQLVESGGGLVKPGGSLRLSCAASGFTFLNAWMSWVRQAPGKCLEWVGRIKSNTDGGTTDYAAPVKGRFTISRDDSKNTLYLQMSSLKTEDTAVYYCTTDGPYSDDFRSGYAARYRYFGMDVWGQGTTVTVSS
For the molecule B12, the 50% effective concentration (EC50) worked out at 0.99 nM.

B13: GL20 IgG (antibody, V domains shown)
VH: QVQLQQSGPGLVKPSQTLSLTCAISGDSVSSYNAVWNWIRQSPSRGLEWLGRTYYRSGWYNDYAESVKSRITINPDTSKNQFSLQLNSVTPEDTAVYYCARSGHITVFGVNVDAFDMWGQGTMVTVSS
VL: DIQMTQSPSSLSASVGDRVTITCRTSQSLSSYTHWYQQKPGKAPKLLIYAASSRGSGVPSRFSGSGSGTDFTLTISSLQPEDFATYYCQQSRTFGQGTKVEIK
With B13, the concentration for a half-maximal effect (EC50) was 1.99 nM.

B14: FY1/39 BiS1 100/44 (bispecific antibody)
light: DIQMTQSPSSVSASVGDRVTITCRASQDISTWLAWYQQKPGKAPKLLIYAASSLQSGVPSRFSGSGSGTDFTLTISSLQPEDFATYFCQQANSFPPTFGCGTKLEIKGGGGSGGGGSGGGGSGGGGSEVQLVVSGGGLVKPGGSLRLSCAASGLSFLNAWMSWVRQAPGKCLEWVGRIKSNTDGGTTDYAAPVKGRFSISRDDSKNMLFLHMSSLRTEDTAVYYCATDGPYSDDFRSGYAARYRYFGMDVWGQGTTVTVSSGGGGSGGGGSDIQMTQSPSSLSASVGDRVTITCRTSQSLSSYLHWYQQKPGKAPKLLIYAASSLQSGVPSRFSGSGSGTDFTLTISSLQPEDFATYYCQQSRTFGQGTKVEIKRTVAAPSVFIFPPSDEQLKSGTASVVCLLNNFYPREAKVQWKVDNALQSGNSQESVTEQDSKDSTYSLSSTLTLSKADYEKHKVYACEVTHQGLSSPVTKSFNRGEC
heavy: not shown
As to B14, the EC50 came out at 6.85 nM.

Values taken from patent publication US20180155413A1 (AstraZeneca / MedImmune, published 2018).
